Assay results from patent EP4566619A1 (AvenCell Therapeutics Inc., dated 2025).
Where a chain is given by its changes, count along the chain named.

T1: CD20 (UniProt P11836 1-297, limits assumed)
T1 sequence (looked up): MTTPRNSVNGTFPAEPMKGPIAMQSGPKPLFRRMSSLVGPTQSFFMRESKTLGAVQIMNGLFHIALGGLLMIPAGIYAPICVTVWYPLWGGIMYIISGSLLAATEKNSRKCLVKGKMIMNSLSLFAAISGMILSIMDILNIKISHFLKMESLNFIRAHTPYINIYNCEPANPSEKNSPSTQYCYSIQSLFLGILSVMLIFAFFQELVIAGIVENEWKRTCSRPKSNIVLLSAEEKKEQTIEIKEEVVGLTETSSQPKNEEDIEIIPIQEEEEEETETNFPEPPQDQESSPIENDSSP

T2: CD19 (UniProt P15391 20-556, limits assumed)
T2 sequence (looked up): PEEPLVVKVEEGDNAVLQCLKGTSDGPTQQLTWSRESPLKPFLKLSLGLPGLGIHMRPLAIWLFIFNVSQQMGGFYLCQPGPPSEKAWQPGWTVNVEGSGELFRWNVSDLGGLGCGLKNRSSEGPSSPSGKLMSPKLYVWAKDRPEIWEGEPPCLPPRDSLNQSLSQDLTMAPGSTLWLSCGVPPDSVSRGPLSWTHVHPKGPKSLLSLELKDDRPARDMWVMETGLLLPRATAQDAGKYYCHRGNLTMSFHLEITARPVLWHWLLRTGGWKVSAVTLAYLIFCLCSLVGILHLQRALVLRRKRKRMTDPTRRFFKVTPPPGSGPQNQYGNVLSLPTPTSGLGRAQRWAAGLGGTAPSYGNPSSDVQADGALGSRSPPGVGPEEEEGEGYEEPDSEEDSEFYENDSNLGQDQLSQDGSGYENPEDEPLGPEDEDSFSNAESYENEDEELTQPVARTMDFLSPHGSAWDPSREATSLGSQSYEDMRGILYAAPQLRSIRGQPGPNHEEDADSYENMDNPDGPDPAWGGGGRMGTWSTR

B1: R-TM-19/20_21 (other)
chain 1: not shown
chain 2: GQVQLVQSGAEVKKPGASVKVSCKASGYTFTHYYIYWVRQAPGQGLEWMGGVNPSNGGTHFNEKFKSRVTMTRDTSISTAYMELSRLRSDDTAVYYCARSEYDYGLGFAYWGQGTLVTVSSASTKGPSVFPLAPSSKSTSGGTAALGCLVKDYFPEPVTVSWNSGALTSGVHTFPAVLQSSGLYSLSSVVTVPSSSLGTQTYICNVNHKPSNTKVDKKVEPKSCDKTHTCPPCPAPPVAGPSVFLFPPKPKDTLMISRTPEVTCVVVDVSHEDPEVKFNWYVDGVEVHNAKTKPREEQYNSTYRVVSVLTVLHQDWLNGKEYKCKVSNKGLPSSIEKTISKAKGQPREPQVYTLPPSRDELTKNQVSLWCLVKGFYPSDIAVEWESNGQPENNYKTTPPVLDSDGSFFLYSKLTVDKSRWQQGNVFSCSVMHEALHNHYTQKSLSLSPGK
chain 3: GQVQLVESGGGLVQPGGSLRLSCAASGRTFSNYNMGWFRQAPGQGLEFVAAIDWSGGSPYYADSVKGRFTISRDNSKNTLYLQMNSLRAEDTAVYYCAAPLSYGSTWLADYWGQGTLVTVSSEPKSCDKTHTCPPCPAPPVAGPSVFLFPPKPKDTLMISRTPEVTCVVVDVSHEDPEVKFNWYVDGVEVHNAKTKPREEQYNSTYRVVSVLTVLHQDWLNGKEYKCKVSNKGLPSSIEKTISKAKGQPREPQVYTLPPSRDELTKNQVSLSCAVKGFYPSDIAVEWESNGQPENNYKTTPPVLDSDGSFFLVSKLTVDKSRWQQGNVFSCSVMHEALHNHYTQKSLSLSPGK
notes: Three-chain CD19/CD20 targeting module
B2: R-TM-19/20_5 (other)
chain 1: not shown
chain 2: B1 chain 2
chain 3: GQVQLVESGGGLVQPGGSLRLSCAASGRTFSNYNMGWFRQAPGQGLEFVAAIDWSGGSPYYADSVKGRFTISRDNSKNTLYLQMNSLRAEDTAVYYCAAPLSYGSTWLADYWGQGTLVTVSSGGGGSGGGGSQVQLVESGGGLVQPGGSLRLSCAASGRTFSNYNMGWFRQAPGQGLEFVAAIDWSGGSPYYADSVKGRFTISRDNSKNTLYLQMNSLRAEDTAVYYCAAPLSYGSTWLADYWGQGTLVTVSSEPKSCDKTHTCPPCPAPPVAGPSVFLFPPKPKDTLMISRTPEVTCVVVDVSHEDPEVKFNWYVDGVEVHNAKTKPREEQYNSTYRVVSVLTVLHQDWLNGKEYKCKVSNKGLPSSIEKTISKAKGQPREPQVYTLPPSRDELTKNQVSLSCAVKGFYPSDIAVEWESNGQPENNYKTTPPVLDSDGSFFLVSKLTVDKSRWQQGNVFSCSVMHEALHNHYTQKSLSLSPGK
notes: Three-chain CD19/CD20 targeting module; also called R-TM 19/20_05
B3: R-TM-19/20_23 (other)
chain 1: not shown
chain 2: B1 chain 2
chain 3: B1 chain 3 with D63A, K66R
notes: as for B1

Assays:
CD20 [1] = molecular target: T1, CD20; experiment: cell-based or functional assay
CD19 [2] = molecular target: T2, CD19; experiment: cell-based or functional assay
CD19 [3] = molecular target: T2, CD19; experiment: cellular binding assay, flow cytometry (gMFI) on OCI-AML3-CD19 cells
CD20 [4] = molecular target: T1, CD20; experiment: cellular binding assay, flow cytometry (gMFI) on OCI-AML3-CD20 cells

Row | Binder | CD20 killing EC50 [pM] (CD20 [1]) | CD19 killing EC50 [pM] (CD19 [2]) | EC50 (CD19 [3]) [nM] | EC50 (CD20 [4]) [nM]
1 | B1 | 12.6 | 1.4 | 2.2 | 53.8
2 | B2 | 9.8 | 6.2 | 14.7 | 24.1
3 | B3 | 2.1 | 1 | 3.4 | 23
